In assay [1] the target is human TLR2 (hTLR2) (human) (UniProt O60603). The assay can be described thus: T7 phage display biopanning, 4 rounds, on 293.hTLR2 cells after negative panning on parental HEK293; percent of 109 sequenced clones.
Assay [2] concerns the target T1, TLR2 (Homo sapiens, UniProt O60603). The assay can be described thus: NF-κB-dependent luciferase reporter assay, parental 293 vs 293.hTLR2 cells. Format: cell-based. Details: host or cells: HEK293 (293.luc, stably carrying κB-LUC reporter). Conditions: 293.hTLR2 vs parental 293 cells, four to five hours at 37° C. The method, then:
NF-κB-dependent luciferase reporter assay: Parental 293 cells and 293.hTLR2 cells (see Example 1, above) were incubated with an aliquot of test peptide four to five hours at 37° C. NF-κB-dependent luciferase activity was measured using the Steady-Glo Luciferase Assay System by Promega (E2510), following the manufacturer's instructions. Luminescence was measured on a microplate luminometer (FARCyte, Amersham) and expressed as relative luminescence units (RLU) after subtracting the background reading obtained by exposing cells to the DMEM medium alone.
The biological activity of the TLR2-binding peptides isolated by the screening method was confirmed using the isolated peptides in an NF-κB-dependent reporter gene assay. For this assay, a synthetic monomer of the DPDSG motif (SEQ ID NO: 5), or a concatemerized copy (DPDSG)5, was incubated on parental HEK293 cells containing an NF-κB-dependent luciferase reporter construct (293) and on TLR2-overexpressing HEK293 cells containing an NF-κB-dependent luciferase reporter construct (293.hTLR2, see Example 1, above). Luciferase activity was then measured. […] Thus, the TLR2-binding peptides identified by the screening assay are functional peptide TLR2 ligands.
Background: A reporter such as luciferase makes a cellular process visible.
Target sequence in this assay (O60603 21-784): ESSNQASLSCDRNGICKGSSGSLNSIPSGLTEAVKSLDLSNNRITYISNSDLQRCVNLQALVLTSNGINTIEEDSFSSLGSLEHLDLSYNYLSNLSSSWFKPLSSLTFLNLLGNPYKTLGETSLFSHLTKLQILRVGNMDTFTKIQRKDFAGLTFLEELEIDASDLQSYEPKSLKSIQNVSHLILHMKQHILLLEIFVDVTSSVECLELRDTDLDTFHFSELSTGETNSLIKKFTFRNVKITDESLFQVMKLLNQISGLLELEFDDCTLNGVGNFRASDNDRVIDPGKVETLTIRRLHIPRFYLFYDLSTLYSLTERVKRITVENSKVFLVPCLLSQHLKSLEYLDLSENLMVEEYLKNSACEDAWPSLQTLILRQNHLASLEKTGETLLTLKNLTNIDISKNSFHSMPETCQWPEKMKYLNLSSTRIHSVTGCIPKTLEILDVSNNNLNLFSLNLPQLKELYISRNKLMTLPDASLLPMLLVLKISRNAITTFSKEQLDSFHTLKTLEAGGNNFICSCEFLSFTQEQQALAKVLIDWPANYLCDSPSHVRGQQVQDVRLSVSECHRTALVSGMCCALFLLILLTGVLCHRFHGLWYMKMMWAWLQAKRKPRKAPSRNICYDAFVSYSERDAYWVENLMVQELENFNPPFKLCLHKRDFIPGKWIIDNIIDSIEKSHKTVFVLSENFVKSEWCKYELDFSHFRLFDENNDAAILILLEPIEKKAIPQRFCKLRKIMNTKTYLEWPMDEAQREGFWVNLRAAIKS

Assay [3] concerns the target T1, TLR2. Conditions: cited from earlier work.
Target sequence in this assay (O60603 21-784, species assumed): as the sequence (O60603 21-784) above

Chain of human TLR2 (hTLR2) (human) (O60603 21-784 limits assumed): as the sequence (O60603 21-784) above

For FCGLG (T7 phage-displayed peptide), in assay [1], the % ABUNDANCE was determined as 0.92%.

As to NRFGL (T7 phage-displayed peptide), the % ABUNDANCE in assay [1] is 0.92%.

On to IGRFR (T7 phage-displayed peptide), for which, in assay [1], the % ABUNDANCE is 2.7%.

In the case of IHVVP (T7 phage-displayed peptide), in assay [1], the % ABUNDANCE turned out to be 0.9%.

With GPLLH (T7 phage-displayed peptide), the % ABUNDANCE in assay [1] is 0.9%.

For KCQSF (T7 phage-displayed peptide), the % ABUNDANCE in assay [1] was determined as 0.92%.

As to LRQGR (T7 phage-displayed peptide), the % ABUNDANCE in assay [1] is 0.9%.

As for THKPK (T7 phage-displayed peptide), the % ABUNDANCE in assay [1] turned out to be 0.9%.

In the case of IMWFP (T7 phage-displayed peptide), in assay [1], the % ABUNDANCE amounted to 0.9%.

On to MRRIL (T7 phage-displayed peptide), for which, in assay [1], the % ABUNDANCE worked out at 0.92%.

As for IMRHP (T7 phage-displayed peptide), the % ABUNDANCE in assay [1] stood at 0.92%.

Regarding KYMPH (T7 phage-displayed peptide), in assay [1], the % ABUNDANCE was determined as 0.9%.

HLLPG (T7 phage-displayed peptide): the % ABUNDANCE in assay [1] is 0.9%.

Turning to “DPDSG: peptide TLR2 ligand from phage display; also made as synthetic monomer”, the “luciferase reporter gene expression” value in assay [2] is on record as “activated luciferase reporter gene expression in a TLR2-dependent manner”.

Consider GGKLS (T7 phage-displayed peptide), for which the % ABUNDANCE in assay [1] came to 0.92%.

For AWAGT (T7 phage-displayed peptide), the % ABUNDANCE in assay [1] turned out to be 0.9%.

As to NRTVF (T7 phage-displayed peptide), in assay [1], the % ABUNDANCE came to 0.92%.

For the substance AVRLS (T7 phage-displayed peptide), the % ABUNDANCE in assay [1] was determined as 0.92%.

As to RGGF (T7 phage-displayed peptide), in assay [1], the % ABUNDANCE amounted to 0.92%.

Turning to KGWF (T7 phage-displayed peptide), in assay [1], the % ABUNDANCE amounted to 0.9%.

For the substance MGTLP (T7 phage-displayed peptide), the % ABUNDANCE in assay [1] worked out at 1.8%.

Take SHIAL (T7 phage-displayed peptide): the % ABUNDANCE in assay [1] amounted to 0.9%.

ALTTE: in assay [3], the “activation of monocytes and epithelial cells via TLR2 signaling” value was “activate monocytes and epithelial cells via TLR2 signaling”.

Regarding NPPTT (T7 phage-displayed peptide), the % ABUNDANCE in assay [1] stood at 0.92%.

RGGSK (T7 phage-displayed peptide): the % ABUNDANCE in assay [1] was 3.67%.

For CVWLQ (T7 phage-displayed peptide), the % ABUNDANCE in assay [1] was determined as 0.9%.

For the substance VGKND (T7 phage-displayed peptide), the % ABUNDANCE in assay [1] was determined as 0.9%.

As for VSEGV (T7 phage-displayed peptide), the % ABUNDANCE in assay [1] amounted to 3.67%.

For AGCFS (T7 phage-displayed peptide), the % ABUNDANCE in assay [1] was 0.92%.

As to MISS (T7 phage-displayed peptide), in assay [1], the % ABUNDANCE was determined as 0.92%.

Consider EVCAP (T7 phage-displayed peptide), for which the % ABUNDANCE in assay [1] stood at 0.92%.

Regarding IYKLA (T7 phage-displayed peptide), the % ABUNDANCE in assay [1] was determined as 0.9%.

As to NYRRW (T7 phage-displayed peptide), the % ABUNDANCE in assay [1] amounted to 0.9%.

As to PESGV (T7 phage-displayed peptide), in assay [1], the % ABUNDANCE was determined as 0.92%.

With RVVAP (T7 phage-displayed peptide), in assay [1], the % ABUNDANCE was 0.9%.

Take ACGVY (T7 phage-displayed peptide): the % ABUNDANCE in assay [1] was 0.92%.

For SRHGR (T7 phage-displayed peptide), the % ABUNDANCE in assay [1] is 0.92%.

CGPKL (T7 phage-displayed peptide): the % ABUNDANCE in assay [1] was 0.92%.

As to MFGVP (T7 phage-displayed peptide), in assay [1], the % ABUNDANCE is 0.9%.

As for ADTHQ (T7 phage-displayed peptide), the % ABUNDANCE in assay [1] is 0.9%.

In the case of SGGLF (T7 phage-displayed peptide), the % ABUNDANCE in assay [1] came out at 0.92%.

“(DPDSG)5: concatemerized copy of the DPDSG motif, made by solid phase synthesis (DPDSGDPDSGDPDSGDPDSGDPDSG)”: the “luciferase reporter gene expression” value in assay [2] is “activated luciferase reporter gene expression in a TLR2-dependent manner”.

These data come from patent US20090028889A1, “Novel Polypeptide Ligands For Toll-Like Receptor 2 (TLR2)” (VAXINNATE CORPORATION, priority 2005, published 2009).
